Reference: patent US20250043302A1, “MUTATED HYDROXYPHENYLPYRUVATE DIOXYGENASE POLYPEPTIDE, AND CODING GENE AND USE THEREOF” (BEIJING DABEINONG BIOTECHNOLOGY CO., LTD., priority 2021, published 2025)
Substitutions are numbered along the chain they refer to. Names and notes keep the numbering of the source.

B1: OsHPPDm-F372A-02: nucleotide sequence encoding Oryza sativa HPPD with F372A; vector DBN11755 (nucleic acid)
DNA: ATGCCACCCACGCCAACACCAACGGCCACCACTGGTGCCGTCTCGGCCGCGGCAGCGGCCGGTGAGAATGCTGGTTTCAGGCTAGTCGGCCACCGCCGCTTCGTGAGGGCAAATCCAAGATCTGATCGGTTCCAAGCACTTGCTTTCCACCATGTTGAGCTGTGGTGCGCTGACGCCGCTTCAGCTGCCGGGAGGTTTGCTTTTGCTTTAGGGGCGCCGCTCGCCGCAAGGAGTGATCTTTCCACCGGAAATTCTGCTCATGCTTCTCTTCTACTTAGATCAGCAAGTGTTGCATTTCTGTTCACTGCACCTTATGGCGGAGACCATGGTGTCGGGGCCGATGCTGCAACAACAGCTAGCATACCATCATTTTCTCCCGGCGCCGCAAGAAGATTTGCAGCCGATCATGGCCTGGCAGTTCATGCTGTGGCATTGAGGGTCGCCGACGCGGCTGATGCGTTCCGCGCCAGCGTGGCTGCTGGAGCTAGGCCGGCGTTCCAGCCTGCTGACCTTGGGGGTGGATTTGGATTGGCGGAGGTTGAATTATATGGTGATGTTGTGCTCCGTTTTGTTTCCCATCCAGATGGTGCTGATGCTCCATTTCTACCTGGATTTGAAGGGGTGTCAAACCCCGGCGCGGTGGATTATGGACTGCGTCGATTTGATCACGTGGTAGGTAATGTTCCTGAGTTGGCTCCCGTGGCGGCCTACATTTCAGGCTTTACTGGCTTCCATGAATTTGCCGAGTTCACCGCGGAAGATGTGGGAACTGCTGAAAGTGGATTGAACTCTGTTGTCCTGGCGAACAATGCAGAGACTGTATTGCTCCCCTTGAATGAGCCTGTGCACGGCACCAAACGGCGATCTCAAATTCAGACATACCTCGACCACCACGGGGGCCCTGGTGTTCAGCATATTGCTCTAGCCAGCGACGACGTACTGGGAACACTGAGGGAGATGAGAGCCCGTTCCGCCATGGGTGGCTTTGAGTTTCTGGCCCCTCCGCCGCCAAACTACTACGACGGCGTCAGACGGCGGGCGGGTGACGTCTTGAGTGAGGAGCAGATCAATGAATGTCAAGAACTTGGGGTTCTTGTTGATAGAGATGATCAAGGAGTGCTCCTCCAAATAGCCACAAAACCTGTTGGCGACCGCCCGACCTTCTTCCTTGAAATGATCCAAAGGATCGGCTGCATGGAGAAGGATGAATCGGGCCAGGAGTACCAGAAGGGTGGGTGTGGTGGCTTTGGGAAGGGCAACTTCAGCGAGCTGTTCAAGTCAATTGAAGAATATGAAAAATCATTGGAGGCAAAGCAAGCTCCGACGGTGCAGGGAAGCTGA
modifications: OsHPPDm-F372A-02 Nucleotide Sequence
notes: vector DBN11755
B2: OsHPPDm-F383W-02: nucleotide sequence encoding Oryza sativa HPPD with F383W; vector DBN11756 (nucleic acid)
DNA: B1 DNA with G1132T, C1133T, T1166G, C1167G
modifications: OsHPPDm-F383W-02 Nucleotide Sequence
notes: vector DBN11756

Key:
Format in all cases: in vivo
[1] = tested on: Arabidopsis thaliana T1 plants; assay: Topramezone tolerance of transgenic Arabidopsis thaliana T1 plants (spray, bleached leaf area grade, damage score); conditions: 7 DAT, Table 4; for Classification and statistics of the grade of pesticide damage: Grade 0 / Classification and statistics of the grade of pesticide damage: Grade 1 / Classification and statistics of the grade of pesticide damage: Grade 2 / Classification and statistics of the grade of pesticide damage: Grade 3: number of plants; for Scores: pesticide damage score 0-100
Summary of the method: (§1)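 Read-out: per-plant damage grade 0–3 from proportion of bleached leaf area at 7 DAT (1 <50%, 2 >50%, 3 100%). Plants were T1 transformants, glufosinate-selected, plus wild-type CK, sprayed 18 days post-sowing. Rates: topramezone 25–200, isoxaflutole 35–280, mesotrione 52.5–420 g ai/ha.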

[2] = tested on: Arabidopsis thaliana T1 plants; assay: Isoxaflutole tolerance of transgenic Arabidopsis thaliana T1 plants (spray, bleached leaf area grade, damage score); parameters: Scores (pesticide damage): scale not given here; conditions: spray, Arabidopsis thaliana T1 plants; for Classification and statistics of the grade of pesticide damage: Grade 0 (number of plants) / Classification and statistics of the grade of pesticide damage: Grade 1 (number of plants) / Classification and statistics of the grade of pesticide damage: Grade 2 (number of plants) / Classification and statistics of the grade of pesticide damage: Grade 3 (number of plants): 16 plants
Summary of the method: as §1

[3] = tested on: Arabidopsis thaliana T1 plants; assay: Mesotrione tolerance of transgenic Arabidopsis thaliana T1 plants (spray, bleached leaf area grade, damage score); parameters: Scores: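 damage score 0-100 computed as Σ(N×S)/(T×M)×100 over grades 0-3 with higher meaning more damage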; conditions: Arabidopsis thaliana T1 plants; for Grade 0 (classification and statistics of the grade of pesticide damage; number of plants) / Grade 1 (classification and statistics of the grade of pesticide damage; number of plants) / Grade 2 (classification and statistics of the grade of pesticide damage; number of plants) / Grade 3 (classification and statistics of the grade of pesticide damage; number of plants): 16 plants
Summary of the method: as §1

[4] = isoxaflutole 35 g ai/ha (0.5x field concentration)
[5] = isoxaflutole 70 g ai/ha (1x field concentration)

Molecule | Classification and statistics of the grade of pesticide damage: Grade 0 ([1]; topramezone 25 g ai/ha (1×)) | Classification and statistics of the grade of pesticide damage: Grade 1 ([1]; topramezone 25 g ai/ha (1×)) | Classification and statistics of the grade of pesticide damage: Grade 2 ([1]; topramezone 25 g ai/ha (1×)) | Classification and statistics of the grade of pesticide damage: Grade 3 ([1]; topramezone 25 g ai/ha (1×)) | Classification and statistics of the grade of pesticide damage: Grade 0 ([1]; topramezone 100 g ai/ha (4×)) | Classification and statistics of the grade of pesticide damage: Grade 1 ([1]; topramezone 100 g ai/ha (4×)) | Classification and statistics of the grade of pesticide damage: Grade 2 ([1]; topramezone 100 g ai/ha (4×)) | Classification and statistics of the grade of pesticide damage: Grade 3 ([1]; topramezone 100 g ai/ha (4×)) | Scores ([1]; topramezone 25 g ai/ha (1×)) | Scores ([1]; topramezone 100 g ai/ha (4×)) | Resistance evaluation ([1]; topramezone 25 g ai/ha (1×)) | Resistance evaluation ([1]; topramezone 100 g ai/ha (4×)) | Resistance evaluation [2, 4] | Scores (pesticide damage) [2, 4] | Classification and statistics of the grade of pesticide damage: Grade 0 (number of plants) [2, 4] | Classification and statistics of the grade of pesticide damage: Grade 1 (number of plants) [2, 4] | Classification and statistics of the grade of pesticide damage: Grade 2 (number of plants) [2, 4] | Classification and statistics of the grade of pesticide damage: Grade 3 (number of plants) [2, 4] | Resistance evaluation [2, 5] | Scores (pesticide damage) [2, 5] | also measured
B1 | 8 | 8 | 0 | 0 | 0 | 0 | 0 | 16 | 17 | 100 | moderately | non-resistant (non-resistant plants (scores 68-100)) | Poorly | 52 | 0 | 8 | 7 | 1 | Non-resistant | 100 | Classification and statistics of the grade of pesticide damage: Grade 0 (number of plants) [2, 5]: 0; Classification and statistics of the grade of pesticide damage: Grade 1 (number of plants) [2, 5]: 0; Classification and statistics of the grade of pesticide damage: Grade 2 (number of plants) [2, 5]: 0; Classification and statistics of the grade of pesticide damage: Grade 3 (number of plants) [2, 5]: 16; Resistance evaluation ([3]; mesotrione 52.5 g ai/ha): Poorly resistant; Scores ([3]; mesotrione 52.5 g ai/ha): 63; Grade 0 (classification and statistics of the grade of pesticide damage; number of plants) ([3]; mesotrione 52.5 g ai/ha): 0; Grade 1 (classification and statistics of the grade of pesticide damage; number of plants) ([3]; mesotrione 52.5 g ai/ha): 5; Grade 2 (classification and statistics of the grade of pesticide damage; number of plants) ([3]; mesotrione 52.5 g ai/ha): 8; Grade 3 (classification and statistics of the grade of pesticide damage; number of plants) ([3]; mesotrione 52.5 g ai/ha): 3; Resistance evaluation ([3]; mesotrione 105 g ai/ha): Non-resistant; Scores ([3]; mesotrione 105 g ai/ha): 100; Grade 0 (classification and statistics of the grade of pesticide damage; number of plants) ([3]; mesotrione 105 g ai/ha): 0; Grade 1 (classification and statistics of the grade of pesticide damage; number of plants) ([3]; mesotrione 105 g ai/ha): 0; Grade 2 (classification and statistics of the grade of pesticide damage; number of plants) ([3]; mesotrione 105 g ai/ha): 0; Grade 3 (classification and statistics of the grade of pesticide damage; number of plants) ([3]; mesotrione 105 g ai/ha): 16
B2 | 0 | 3 | 9 | 4 | 0 | 0 | 0 | 16 | 69 | 100 | non-resistant (non-resistant plants (scores 68-100)) | non-resistant (non-resistant plants (scores 68-100)) | Non-resistant | 94 | 0 | 0 | 3 | 13 | Non-resistant | 100 | Classification and statistics of the grade of pesticide damage: Grade 0 (number of plants) [2, 5]: 0; Classification and statistics of the grade of pesticide damage: Grade 1 (number of plants) [2, 5]: 0; Classification and statistics of the grade of pesticide damage: Grade 2 (number of plants) [2, 5]: 0; Classification and statistics of the grade of pesticide damage: Grade 3 (number of plants) [2, 5]: 16; Resistance evaluation ([3]; mesotrione 52.5 g ai/ha): Non-resistant; Scores ([3]; mesotrione 52.5 g ai/ha): 85; Grade 0 (classification and statistics of the grade of pesticide damage; number of plants) ([3]; mesotrione 52.5 g ai/ha): 0; Grade 1 (classification and statistics of the grade of pesticide damage; number of plants) ([3]; mesotrione 52.5 g ai/ha): 0; Grade 2 (classification and statistics of the grade of pesticide damage; number of plants) ([3]; mesotrione 52.5 g ai/ha): 7; Grade 3 (classification and statistics of the grade of pesticide damage; number of plants) ([3]; mesotrione 52.5 g ai/ha): 9; Resistance evaluation ([3]; mesotrione 105 g ai/ha): Non-resistant; Scores ([3]; mesotrione 105 g ai/ha): 100; Grade 0 (classification and statistics of the grade of pesticide damage; number of plants) ([3]; mesotrione 105 g ai/ha): 0; Grade 1 (classification and statistics of the grade of pesticide damage; number of plants) ([3]; mesotrione 105 g ai/ha): 0; Grade 2 (classification and statistics of the grade of pesticide damage; number of plants) ([3]; mesotrione 105 g ai/ha): 0; Grade 3 (classification and statistics of the grade of pesticide damage; number of plants) ([3]; mesotrione 105 g ai/ha): 16
